Tests used:
[1] = target: T1, CD19 on RAJI (CD19+) cells (UniProt P15391 20-556, limits assumed); assay: live cell ELISA on RAJI (CD19+) cells; OD450 grade at 1/60 dilution
T1 construct: whole, on cells
T1 sequence (looked up): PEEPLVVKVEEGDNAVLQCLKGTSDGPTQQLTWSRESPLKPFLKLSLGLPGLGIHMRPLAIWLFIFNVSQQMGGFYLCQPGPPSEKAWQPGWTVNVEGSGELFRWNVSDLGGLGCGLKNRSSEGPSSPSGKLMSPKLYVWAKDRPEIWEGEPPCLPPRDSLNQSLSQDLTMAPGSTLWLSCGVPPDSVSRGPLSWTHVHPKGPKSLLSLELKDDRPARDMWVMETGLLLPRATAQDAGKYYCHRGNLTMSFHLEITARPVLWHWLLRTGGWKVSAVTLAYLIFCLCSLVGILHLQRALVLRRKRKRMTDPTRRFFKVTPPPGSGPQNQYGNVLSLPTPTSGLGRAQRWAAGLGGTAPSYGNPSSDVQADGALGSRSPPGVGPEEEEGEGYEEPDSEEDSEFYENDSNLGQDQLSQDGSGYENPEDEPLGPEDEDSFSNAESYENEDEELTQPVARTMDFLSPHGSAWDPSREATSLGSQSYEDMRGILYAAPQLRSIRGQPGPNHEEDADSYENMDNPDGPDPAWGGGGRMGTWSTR
Description: (§1) These variants were tested for their ability to bind to cells expressing the target antigen using a live cell ELISA binding assay using filter plates and wash steps carried out using a vacuum manifold (method developed by Anne Marcil at the National Research Council, Montreal, Canada). The method was carried out as follows. Cells were maintained in exponential growth phase and then washed, counted and distributed at 10E5 cells per well in 50% medium, 50% blocking buffer. Dilutions of variants in blocking buffer were added to the cells and incubated for 1 hour at 4° C. After collection and four washes in medium, an HRP-conjugated goat anti-human IgG was added to cells which were incubated for 1 hour at 4° C. After collection and four washes in medium and 3 washes in PBS, TMB substrate was added to cells which were incubated for 25 minutes at room temperature. The reaction was stopped by addition of H₂SO4 and OD read at 450 nm. The ELISA results are depicted in Tables 17 and 18. A, B, and C refer to the ratio of Chain A to Chain B used in expression of the variant: Ratio A=Chain A/Chain B=1:1 A/B=50%/50%; Ratio B=Chain A/Chain B=2:1 A/B=66%/34%; Ratio C=Chain A/Chain B=1:2 A/B=34%/66%.

[2] = target: T2, CD3 on HBP-ALL (CD3+) cells (UniProt P07766 23-207); assay: live cell ELISA on HBP-ALL (CD3+) cells; OD450 grade at 1/60 dilution
T2 construct: whole, on cells; CD3 is a multi-chain complex
Description: as §1

B1: scMAB_LL_CD3xCD19_HH41_GSE34, variant 1846 (bispecific antibody, human IgG1, kappa)
chain 1: DIQMTQSPSSLSASVGDRVTITCSASSSVSYMNWYQQTPGKAPKRWIYDTSKLASGVPSRFSGSGSGTDYTFTISSLQPEDIATYYCQQWSSNPFTFGQGTKLQITRTVAAPSVFIFPPSDEQLKSGTASVVCLLNNFYPREAKVQWKVDNALQSGNSQESVTEQDSKDSTYSLSSTLTLSKADYEKHKVYACEVTHQGLSSPVTKSFNRGECGGSGGGSGSSADDAKKDAAKKDDAKKDDAKKDGGGSGGGSGQVQLVQSGGGVVQPGRSLRLSCKASGYTFTRYTMHWVRQAPGKGLEWIGYINPSRGYTNYNQKVKDRFTISRDNSKNTAFLQMDSLRPEDTGVYFCARYYDDHYCLDYWGQGTPVTVSSASTKGPSVFPLAPSSKSTSGGTAALGCLVKDYFPEPVTVSWNSGALTSGVHTFPAVLQSSGLYSLSSVVTVPSSSLGTQTYICNVNHKPSNTKVDKKVEPKSCDKTHTCPPCPAPELLGGPSVFLFPPKPKDTLMISRTPEVTCVVVDVSHEDPEVKFNWYVDGVEVHNAKTKPREEQYNSTYRVVSVLTVLHQDWLNGKEYKCKVSNKALPAPIEKTISKAKGQPREPQVYVYPPSRDELTKNQVSLTCLVKGFYPSDIAVEWESNGQPENNYKTTPPVLDSDGSFALVSKLTVDKSRWQQGNVFSCSVMHEALHNHYTQKSLSLSPGK
chain 2: not shown
notes: A, B and C are the chain A : chain B DNA ratios used in expression (1:1, 2:1, 1:2); also called 1846 A; 1846 B
Binder B1 has an OD450 [1] greater than 2 od and an OD450 [2] of 1 to 2 od.

B2: scMAB_LCI_CD3xCD19_GS20-GS24_GS20-GS24, variant 1840 (bispecific antibody)
chain 1: QVQLVQSGGGVVQPGRSLRLSCKASGYTFTRYTMHWVRQAPGKGLEWIGYINPSRGYTNYNQKVKDRFTISRDNSKNTAFLQMDSLRPEDTGVYFCARYYDDHYCLDYWGQGTPVTVSSGGGGSGGGGSGGGGSGGGGSDIQMTQSPSSLSASVGDRVTITCSASSSVSYMNWYQQTPGKAPKRWIYDTSKLASGVPSRFSGSGSGTDYTFTISSLQPEDIATYYCQQWSSNPFTFGQGTKLQITRTVAAPSVFIFPPSDEQLKSGTASVVCLLNNFYPREAKVQWKVDNALQSGNSQESVTEQDSKDSTYSLSSTLTLSKADYEKHKVYACEVTHQGLSSPVTKSFNRGECGGGGSGGGGSGGGGSGGGGSGGGGSTKGPSVFPLAPSSKSTSGGTAALGCLVKDYFPEPVTVSWNSGALTSGVHTFPAVLQSSGLYSLSSVVTVPSSSLGTQTYICNVNHKPSNTKVDKKVEPKSCDKTHTCPPCPAPELLGGPSVFLFPPKPKDTLMISRTPEVTCVVVDVSHEDPEVKFNWYVDGVEVHNAKTKPREEQYNSTYRVVSVLTVLHQDWLNGKEYKCKVSNKALPAPIEKTISKAKGQPREPQVYVYPPSRDELTKNQVSLTCLVKGFYPSDIAVEWESNGQPENNYKTTPPVLDSDGSFALVSKLTVDKSRWQQGNVFSCSVMHEALHNHYTQKSLSLSPGK
chain 2: not shown
notes: also called 1840 A
B2 was tested, and the OD450 [1] was greater than 2 od and the OD450 [2] was 1 to 2 od.

B3: scMAB_LCI_CD3xCD19_GS20-GS24_GS20-GS24_SS, variant 1842 (bispecific antibody, human IgG1, kappa)
chain 1: QVQLVQSGGGVVQPGRSLRLSCKASGYTFTRYTMHWVRQAPGKCLEWIGYINPSRGYTNYNQKVKDRFTISRDNSKNTAFLQMDSLRPEDTGVYFCARYYDDHYCLDYWGQGTPVTVSSGGGGSGGGGSGGGGSGGGGSDIQMTQSPSSLSASVGDRVTITCSASSSVSYMNWYQQTPGKAPKRWIYDTSKLASGVPSRFSGSGSGTDYTFTISSLQPEDIATYYCQQWSSNPFTFGCGTKLQITRTVAAPSVFIFPPSDEQLKSGTASVVCLLNNFYPREAKVQWKVDNALQSGNSQESVTEQDSKDSTYSLSSTLTLSKADYEKHKVYACEVTHQGLSSPVTKSFNRGECGGGGSGGGGSGGGGSGGGGSGGGGSTKGPSVFPLAPSSKSTSGGTAALGCLVKDYFPEPVTVSWNSGALTSGVHTFPAVLQSSGLYSLSSVVTVPSSSLGTQTYICNVNHKPSNTKVDKKVEPKSCDKTHTCPPCPAPELLGGPSVFLFPPKPKDTLMISRTPEVTCVVVDVSHEDPEVKFNWYVDGVEVHNAKTKPREEQYNSTYRVVSVLTVLHQDWLNGKEYKCKVSNKALPAPIEKTISKAKGQPREPQVYVYPPSRDELTKNQVSLTCLVKGFYPSDIAVEWESNGQPENNYKTTPPVLDSDGSFALVSKLTVDKSRWQQGNVFSCSVMHEALHNHYTQKSLSLSPGK
chain 2: not shown
notes: Heterodimeric IgG1 Fc; the CH3 mutations are already in the entries; also called 1842 B
With B3 the OD450 [1] was greater than 2 od and the OD450 [2] was 1 to 2 od.

B4: scMAB_LCI_CD3xCD19_GS15-GS24_GS15-GS24, variant 1841 (bispecific antibody, human IgG1, kappa)
chain 1: QVQLVQSGGGVVQPGRSLRLSCKASGYTFTRYTMHWVRQAPGKGLEWIGYINPSRGYTNYNQKVKDRFTISRDNSKNTAFLQMDSLRPEDTGVYFCARYYDDHYCLDYWGQGTPVTVSSGGGGSGGGGSGGGGSDIQMTQSPSSLSASVGDRVTITCSASSSVSYMNWYQQTPGKAPKRWIYDTSKLASGVPSRFSGSGSGTDYTFTISSLQPEDIATYYCQQWSSNPFTFGQGTKLQITRTVAAPSVFIFPPSDEQLKSGTASVVCLLNNFYPREAKVQWKVDNALQSGNSQESVTEQDSKDSTYSLSSTLTLSKADYEKHKVYACEVTHQGLSSPVTKSFNRGECGGGGSGGGGSGGGGSGGGGSGGGGSTKGPSVFPLAPSSKSTSGGTAALGCLVKDYFPEPVTVSWNSGALTSGVHTFPAVLQSSGLYSLSSVVTVPSSSLGTQTYICNVNHKPSNTKVDKKVEPKSCDKTHTCPPCPAPELLGGPSVFLFPPKPKDTLMISRTPEVTCVVVDVSHEDPEVKFNWYVDGVEVHNAKTKPREEQYNSTYRVVSVLTVLHQDWLNGKEYKCKVSNKALPAPIEKTISKAKGQPREPQVYVYPPSRDELTKNQVSLTCLVKGFYPSDIAVEWESNGQPENNYKTTPPVLDSDGSFALVSKLTVDKSRWQQGNVFSCSVMHEALHNHYTQKSLSLSPGK
chain 2: not shown
notes: Heterodimeric IgG1 Fc; the CH3 mutations are already in the entries; also called 1841 B
B4 showed an OD450 [1] greater than 2 od and an OD450 [2] of 1 to 2 od.

B5: scMAB_LCI_CD3xCD19_GS15-GS24_GS15-GS24_SS, variant 1843 (bispecific antibody, human IgG1, kappa)
chain 1: QVQLVQSGGGVVQPGRSLRLSCKASGYTFTRYTMHWVRQAPGKCLEWIGYINPSRGYTNYNQKVKDRFTISRDNSKNTAFLQMDSLRPEDTGVYFCARYYDDHYCLDYWGQGTPVTVSSGGGGSGGGGSGGGGSDIQMTQSPSSLSASVGDRVTITCSASSSVSYMNWYQQTPGKAPKRWIYDTSKLASGVPSRFSGSGSGTDYTFTISSLQPEDIATYYCQQWSSNPFTFGCGTKLQITRTVAAPSVFIFPPSDEQLKSGTASVVCLLNNFYPREAKVQWKVDNALQSGNSQESVTEQDSKDSTYSLSSTLTLSKADYEKHKVYACEVTHQGLSSPVTKSFNRGECGGGGSGGGGSGGGGSGGGGSGGGGSTKGPSVFPLAPSSKSTSGGTAALGCLVKDYFPEPVTVSWNSGALTSGVHTFPAVLQSSGLYSLSSVVTVPSSSLGTQTYICNVNHKPSNTKVDKKVEPKSCDKTHTCPPCPAPELLGGPSVFLFPPKPKDTLMISRTPEVTCVVVDVSHEDPEVKFNWYVDGVEVHNAKTKPREEQYNSTYRVVSVLTVLHQDWLNGKEYKCKVSNKALPAPIEKTISKAKGQPREPQVYVYPPSRDELTKNQVSLTCLVKGFYPSDIAVEWESNGQPENNYKTTPPVLDSDGSFALVSKLTVDKSRWQQGNVFSCSVMHEALHNHYTQKSLSLSPGK
chain 2: not shown
notes: Heterodimeric IgG1 Fc; the CH3 mutations are already in the entries; also called 1843 B
With B5 the OD450 [1] was greater than 2 od and the OD450 [2] was 1 to 2 od.

B6: scMAB_LL_CD3xCD19_HH41_HH41, variant 1844 (bispecific antibody, human IgG1, kappa)
chain 1: DIQMTQSPSSLSASVGDRVTITCSASSSVSYMNWYQQTPGKAPKRWIYDTSKLASGVPSRFSGSGSGTDYTFTISSLQPEDIATYYCQQWSSNPFTFGQGTKLQITRTVAAPSVFIFPPSDEQLKSGTASVVCLLNNFYPREAKVQWKVDNALQSGNSQESVTEQDSKDSTYSLSSTLTLSKADYEKHKVYACEVTHQGLSSPVTKSFNRGECGGSGGGSGSSADDAKKDAAKKDDAKKDDAKKDGGGSGGGSGQVQLVQSGGGVVQPGRSLRLSCKASGYTFTRYTMHWVRQAPGKGLEWIGYINPSRGYTNYNQKVKDRFTISRDNSKNTAFLQMDSLRPEDTGVYFCARYYDDHYCLDYWGQGTPVTVSSASTKGPSVFPLAPSSKSTSGGTAALGCLVKDYFPEPVTVSWNSGALTSGVHTFPAVLQSSGLYSLSSVVTVPSSSLGTQTYICNVNHKPSNTKVDKKVEPKSCDKTHTCPPCPAPELLGGPSVFLFPPKPKDTLMISRTPEVTCVVVDVSHEDPEVKFNWYVDGVEVHNAKTKPREEQYNSTYRVVSVLTVLHQDWLNGKEYKCKVSNKALPAPIEKTISKAKGQPREPQVYVYPPSRDELTKNQVSLTCLVKGFYPSDIAVEWESNGQPENNYKTTPPVLDSDGSFALVSKLTVDKSRWQQGNVFSCSVMHEALHNHYTQKSLSLSPGK
chain 2: not shown
notes: B and C are the chain A : chain B DNA ratios used in expression (2:1 and 1:2); also called 1844 B; 1844 C
B6 was tested, and the OD450 [1] was greater than 2 od and the OD450 [2] was 1 to 2 od.

B7: scMAB_LL_CD3xCD19_GSE34_GSE34, variant 1845 (bispecific antibody)
chain 1: DIQMTQSPSSLSASVGDRVTITCSASSSVSYMNWYQQTPGKAPKRWIYDTSKLASGVPSRFSGSGSGTDYTFTISSLQPEDIATYYCQQWSSNPFTFGQGTKLQITRTVAAPSVFIFPPSDEQLKSGTASVVCLLNNFYPREAKVQWKVDNALQSGNSQESVTEQDSKDSTYSLSSTLTLSKADYEKHKVYACEVTHQGLSSPVTKSFNRGECSGGGSGGGSEGGGSEGGGSEGGGSEGGGSGGGSGQVQLVQSGGGVVQPGRSLRLSCKASGYTFTRYTMHWVRQAPGKGLEWIGYINPSRGYTNYNQKVKDRFTISRDNSKNTAFLQMDSLRPEDTGVYFCARYYDDHYCLDYWGQGTPVTVSSASTKGPSVFPLAPSSKSTSGGTAALGCLVKDYFPEPVTVSWNSGALTSGVHTFPAVLQSSGLYSLSSVVTVPSSSLGTQTYICNVNHKPSNTKVDKKVEPKSCDKTHTCPPCPAPELLGGPSVFLFPPKPKDTLMISRTPEVTCVVVDVSHEDPEVKFNWYVDGVEVHNAKTKPREEQYNSTYRVVSVLTVLHQDWLNGKEYKCKVSNKALPAPIEKTISKAKGQPREPQVYVYPPSRDELTKNQVSLTCLVKGFYPSDIAVEWESNGQPENNYKTTPPVLDSDGSFALVSKLTVDKSRWQQGNVFSCSVMHEALHNHYTQKSLSLSPGK
chain 2: not shown
notes: A, B and C are the chain A : chain B DNA ratios used in expression (1:1, 2:1, 1:2); also called 1845 A; 1845 B
Binder B7 has an OD450 [1] greater than 2 od and an OD450 [2] of 1 to 2 od.
